Measured values from PMC12034804.

How the values were obtained:
[1] = biological target: eGFP-CD24 (CD24 fused with eGFP at the N-terminus), on CHO-CD24 cells (UniProt P25063)
[2] = biological target: enhanced green fluorescent protein (eGFP) [GFP: P42212]; experiment: BLI; ForteBio sensors loaded with 20 nM solutions, baseline in PBS with 1 mg/ml BSA, single concentration of analyte, 1000 rpm, 1:1 binding model, Kd from kd : ka; the section's heading calls it isothermal titration calorimetry; who was on the sensor is not told
[3] = biological target: de-N-glycosylated eGFP-CD24, on CHO-CD24 cells treated with nbGFP-PNGF (UniProt P25063); experiment: flow cytometry on cells; CHO-CD24 cells incubated with 5 nM PNGF or nbGFP-PNGF for 2 hours, with or without 50 µM P-3Fax-Neu5Ac; bound enzyme dissociated in acidic buffer (100 mM Glycine, 150 mM NaCl, pH 3.0, 0.1% Tween-20) for 2 min; then human Siglec-10 Fc chimera, biotin anti-human IgG Fc, Cy5-streptavidin
[4] = biological target: eGFP-CD24 (CD24 fused with eGFP at the N-terminus), on CHO-CD24 cells (UniProt P25063); remark: listed apart in the source

## nbGFP-PNGF (Peptide-N-glycosidase F fused to an N-terminal nanobody against eGFP)
[1]
  de-N-glycosylation of eGFP-CD24 on CHO cells (western blot, 2 h): concentration at which it is complete; 500 nM PNGF without the nanobody could not: 5 nM
[2]
  Kd: 5.58 nM

B1: recombinant human Siglec-10 Fc chimera (Fc fusion)
chain: MDGRFWIRVQESVMVPEGLCISVPCSFSYPRQDWTGSTPAYGYWFKAVTETTKGAPVATNHQSREVEMSTRGRFQLTGDPAKGNCSLVIRDAQMQDESQYFFRVERGSYVRYNFMNDGFFLKVTALTQKPDVYIPETLEPGQPVTVICVFNWAFEECPPPSFSWTGAALSSQGTKPTTSHFSVLSFTPRPQDHNTDLTCHVDFSRKGVSAQRTVRLRVAYAPRDLVISISRDNTPALEPQPQGNVPYLEAQKGQFLRLLCAADSQPPATLSWVLQNRVLSSSHPWGPRPLGLELPGVKAGDSGRYTCRAENRLGSQQRALDLSVQYPPENLRVMVSQANRTVLENLGNGTSLPVLEGQSLCLVCVTHSSPPARLSWTQRGQVLSPSQPSDPGVLELPRVQVEHEGEFTCHARHPLGSQHVSLSLSVHYSPKLLGPSCSWEAEGLHCSCSSQASPAPSLRWWLGEELLEGNSSQDSFEVTPSSAGPWANSSLSLHGGLSSGLRLRCEAWNVHGAQSGSILQLPDKKGLISTAFSN
[3]
  percent of the CD24/Siglec-10 interaction that is due to the N-glycans (lost on de-N-glycosylation): > 82%
[4]
  phagocytosis of CHO-CD24 cells by mouse bone marrow-derived macrophages after treatment with nbGFP-PNGF, against control (flow cytometry): 0.5 fold
